Data as given in the supplement of paper PMC10567573.

B1: ZNF649 (parent)
chain: LVAHQRYHTGKTPFVCPECGQPCS

Variants of: B1
Test: protein stability index of a GFP-peptide fusion (GPS, HEK-293T) (PSI 1-6); higher = more stable
Conditions: c terminus: a fixed tail appended
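Also: lentivirally expressed fusions sorted by FACS into six bins by GFP to DsRed ratio, PSI derived from sequencing read proportions per bin multiplied by bin number.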

| Variant | protein stability index |
| --- | --- |
| LVAHQRYHTSKTPFVCPECGQPCS [G10S] | 2.4 |
| LVAHQRYHTTKTPFVCPECGQPCS [G10T] | 3.01 |
| LVAHQRYHTVKTPFVCPECGQPCS [G10V] | 2.85 |
| LVAHQRYHTWKTPFVCPECGQPCS [G10W] | 3.9 |
| LVAHQRYHTYKTPFVCPECGQPCS [G10Y] | 2.82 |
| LVAHQRYHTGATPFVCPECGQPCS [K11A] | 3.98 |
| LVAHQRYHTGCTPFVCPECGQPCS [K11C] | 3.39 |
| LVAHQRYHTGDTPFVCPECGQPCS [K11D] | 3.45 |
| LVAHQRYHTGETPFVCPECGQPCS [K11E] | 3.67 |
| LVAHQRYHTGFTPFVCPECGQPCS [K11F] | 2.81 |
| LVAHQRYHTGGTPFVCPECGQPCS [K11G] | 3.45 |
| LVAHQRYHTGHTPFVCPECGQPCS [K11H] | 3.35 |
| LVAHQRYHTGITPFVCPECGQPCS [K11I] | 3.31 |
| LVAHQRYHTGLTPFVCPECGQPCS [K11L] | 3.49 |
| LVAHQRYHTGMTPFVCPECGQPCS [K11M] | 3.31 |
| LVAHQRYHTGNTPFVCPECGQPCS [K11N] | 3.48 |
| LVAHQRYHTGPTPFVCPECGQPCS [K11P] | 3.06 |
| LVAHQRYHTGQTPFVCPECGQPCS [K11Q] | 3.67 |
| LVAHQRYHTGRTPFVCPECGQPCS [K11R] | 3.75 |
| LVAHQRYHTGSTPFVCPECGQPCS [K11S] | 3.77 |
| LVAHQRYHTGTTPFVCPECGQPCS [K11T] | 3.19 |
| LVAHQRYHTGVTPFVCPECGQPCS [K11V] | 4.02 |
| LVAHQRYHTGWTPFVCPECGQPCS [K11W] | 2.91 |
| LVAHQRYHTGYTPFVCPECGQPCS [K11Y] | 3.07 |

| Variant | protein stability index |
| --- | --- |
| LVAHQRYHTGKAPFVCPECGQPCS [T12A] | 3.49 |
| LVAHQRYHTGKCPFVCPECGQPCS [T12C] | 3.01 |
| LVAHQRYHTGKDPFVCPECGQPCS [T12D] | 3.06 |
| LVAHQRYHTGKEPFVCPECGQPCS [T12E] | 3.86 |
| LVAHQRYHTGKFPFVCPECGQPCS [T12F] | 2.77 |
| LVAHQRYHTGKGPFVCPECGQPCS [T12G] | 3.04 |
| LVAHQRYHTGKHPFVCPECGQPCS [T12H] | 2.56 |
| LVAHQRYHTGKIPFVCPECGQPCS [T12I] | 3.7 |
| LVAHQRYHTGKKPFVCPECGQPCS [T12K] | 3.15 |
| LVAHQRYHTGKLPFVCPECGQPCS [T12L] | 2.96 |
| LVAHQRYHTGKMPFVCPECGQPCS [T12M] | 3.12 |
| LVAHQRYHTGKNPFVCPECGQPCS [T12N] | 3.39 |
| LVAHQRYHTGKPPFVCPECGQPCS [T12P] | 3.2 |
| LVAHQRYHTGKQPFVCPECGQPCS [T12Q] | 2.68 |
| LVAHQRYHTGKRPFVCPECGQPCS [T12R] | 2.91 |
| LVAHQRYHTGKSPFVCPECGQPCS [T12S] | 3.5 |
| LVAHQRYHTGKVPFVCPECGQPCS [T12V] | 3.13 |
| LVAHQRYHTGKWPFVCPECGQPCS [T12W] | 2.96 |
| LVAHQRYHTGKYPFVCPECGQPCS [T12Y] | 3.02 |
| LVAHQRYHTGKTAFVCPECGQPCS [P13A] | 2.94 |
| LVAHQRYHTGKTCFVCPECGQPCS [P13C] | 2.71 |
| LVAHQRYHTGKTDFVCPECGQPCS [P13D] | 3.46 |
| LVAHQRYHTGKTEFVCPECGQPCS [P13E] | 3.7 |
| LVAHQRYHTGKTFFVCPECGQPCS [P13F] | 2.8 |

| Variant | protein stability index |
| --- | --- |
| LVAHQRYHTGKTGFVCPECGQPCS [P13G] | 2.94 |
| LVAHQRYHTGKTHFVCPECGQPCS [P13H] | 3.36 |
| LVAHQRYHTGKTIFVCPECGQPCS [P13I] | 2.76 |
| LVAHQRYHTGKTKFVCPECGQPCS [P13K] | 3.36 |
| LVAHQRYHTGKTLFVCPECGQPCS [P13L] | 2.62 |
| LVAHQRYHTGKTMFVCPECGQPCS [P13M] | 3.27 |
| LVAHQRYHTGKTNFVCPECGQPCS [P13N] | 3.64 |
| LVAHQRYHTGKTQFVCPECGQPCS [P13Q] | 3.32 |
| LVAHQRYHTGKTRFVCPECGQPCS [P13R] | 3.31 |
| LVAHQRYHTGKTSFVCPECGQPCS [P13S] | 3.65 |
| LVAHQRYHTGKTTFVCPECGQPCS [P13T] | 4.15 |
| LVAHQRYHTGKTVFVCPECGQPCS [P13V] | 3.32 |
| LVAHQRYHTGKTWFVCPECGQPCS [P13W] | 3.63 |
| LVAHQRYHTGKTYFVCPECGQPCS [P13Y] | 3.26 |
| LVAHQRYHTGKTPAVCPECGQPCS [F14A] | 3.94 |
| LVAHQRYHTGKTPCVCPECGQPCS [F14C] | 3.65 |
| LVAHQRYHTGKTPDVCPECGQPCS [F14D] | 4.18 |
| LVAHQRYHTGKTPEVCPECGQPCS [F14E] | 4.44 |
| LVAHQRYHTGKTPGVCPECGQPCS [F14G] | 4.1 |
| LVAHQRYHTGKTPHVCPECGQPCS [F14H] | 3.02 |
| LVAHQRYHTGKTPIVCPECGQPCS [F14I] | 3.61 |
| LVAHQRYHTGKTPKVCPECGQPCS [F14K] | 3.28 |
| LVAHQRYHTGKTPLVCPECGQPCS [F14L] | 3.7 |
| LVAHQRYHTGKTPMVCPECGQPCS [F14M] | 3.25 |

| Variant | protein stability index |
| --- | --- |
| LVAHQRYHTGKTPNVCPECGQPCS [F14N] | 3.7 |
| LVAHQRYHTGKTPPVCPECGQPCS [F14P] | 3.58 |
| LVAHQRYHTGKTPQVCPECGQPCS [F14Q] | 3.38 |
| LVAHQRYHTGKTPRVCPECGQPCS [F14R] | 3.38 |
| LVAHQRYHTGKTPSVCPECGQPCS [F14S] | 3.93 |
| LVAHQRYHTGKTPTVCPECGQPCS [F14T] | 4.22 |
| LVAHQRYHTGKTPVVCPECGQPCS [F14V] | 3.81 |
| LVAHQRYHTGKTPWVCPECGQPCS [F14W] | 3.1 |
| LVAHQRYHTGKTPYVCPECGQPCS [F14Y] | 3 |
| LVAHQRYHTGKTPFACPECGQPCS [V15A] | 3.33 |
| LVAHQRYHTGKTPFCCPECGQPCS [V15C] | 2.88 |
| LVAHQRYHTGKTPFDCPECGQPCS [V15D] | 3.83 |
| LVAHQRYHTGKTPFECPECGQPCS [V15E] | 3.66 |
| LVAHQRYHTGKTPFFCPECGQPCS [V15F] | 2.76 |
| LVAHQRYHTGKTPFGCPECGQPCS [V15G] | 3.03 |
| LVAHQRYHTGKTPFHCPECGQPCS [V15H] | 2.4 |
| LVAHQRYHTGKTPFICPECGQPCS [V15I] | 2.74 |
| LVAHQRYHTGKTPFKCPECGQPCS [V15K] | 2.42 |
| LVAHQRYHTGKTPFLCPECGQPCS [V15L] | 3.2 |
| LVAHQRYHTGKTPFMCPECGQPCS [V15M] | 3.3 |
| LVAHQRYHTGKTPFNCPECGQPCS [V15N] | 3.51 |
| LVAHQRYHTGKTPFPCPECGQPCS [V15P] | 3.77 |
